# B1: library; numbered along this chain (parent)
# chain: MAAAAAAAAEQQSSNGPVKKSMREKAVERRSVNKEHNSNFKAGYIPIDEDRLHKTGLRGRKGNLAICVIILLFILAVINLIITLVIWAVIRIGPNGCDSMEFHESGLLRFKQVSDMGVIHPLYKSTVGGRRNENLVITGNNQPIVFQQGTTKLSVENNKTSITSDIGMQFFDPRTQNILFSTDYETHEFHLPSGVKSLNVQKASTERITSNATSDLNIKVDGRAIVRGNEGVFIMGKTIEFHMGGNMELKAENSIILNGSVMVSTTRLPSSSSGDQLGSGDWVRYKLCMCADGTLFKVQVTSQNMGCQISDNPCGNTH
# Variants of: B1
# Assay: SGCB cell-surface expression functional score (HA stain, bin4 vs bin1, normalised to synonymous) (log10 ratio); higher = more cell-surface SGCB (functional)
# Summary of the method: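 Using lentivirus at MOI <0.1, HA-tagged, YFP-fused human beta-sarcoglycan codon-saturation libraries were put into HEK293 cells with stable alpha-, gamma- and delta-sarcoglycan expression, in duplicate transductions. YFP-positive cells were collected by sorting 72 hours later, grown 5–7 days, stained on ice with Alexa Fluor 647 anti-HA, fixed, sorted into four 5% intensity bins and amplicon-sequenced. The functional score takes the median, across codons and transductions, of the log ratio of highest-bin to lowest-bin variant frequency. Within each section, synonymous variants were scaled to mean 0, SD 0.5.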
row,Variant,SGCB cell-surface expression functional score (log10)
1,MAAAAAAAAEQQSSNGPVKKSMREKAVERRSVNKEHNSNFKAGYIPIDEDRLHKTGLRGRKGNLAICVIILLFILAVINLIITLVIWAVIRIGPNGCDSMEFHESCLLRFKQVSDMGVIHPLYKSTVGGRRNENLVITGNNQPIVFQQGTTKLSVENNKTSITSDIGMQFFDPRTQNILFSTDYETHEFHLPSGVKSLNVQKASTERITSNATSDLNIKVDGRAIVRGNEGVFIMGKTIEFHMGGNMELKAENSIILNGSVMVSTTRLPSSSSGDQLGSGDWVRYKLCMCADGTLFKVQVTSQNMGCQISDNPCGNTH [G106C],-1.9
2,MAAAAAAAAEQQSSNGPVKKSMREKAVERRSVNKEHNSNFKAGYIPIDEDRLHKTGLRGRKGNLAICVIILLFILAVINLIITLVIWAVIRIGPNGCDSMEFHESELLRFKQVSDMGVIHPLYKSTVGGRRNENLVITGNNQPIVFQQGTTKLSVENNKTSITSDIGMQFFDPRTQNILFSTDYETHEFHLPSGVKSLNVQKASTERITSNATSDLNIKVDGRAIVRGNEGVFIMGKTIEFHMGGNMELKAENSIILNGSVMVSTTRLPSSSSGDQLGSGDWVRYKLCMCADGTLFKVQVTSQNMGCQISDNPCGNTH [G106E],-0.58
3,MAAAAAAAAEQQSSNGPVKKSMREKAVERRSVNKEHNSNFKAGYIPIDEDRLHKTGLRGRKGNLAICVIILLFILAVINLIITLVIWAVIRIGPNGCDSMEFHESDLLRFKQVSDMGVIHPLYKSTVGGRRNENLVITGNNQPIVFQQGTTKLSVENNKTSITSDIGMQFFDPRTQNILFSTDYETHEFHLPSGVKSLNVQKASTERITSNATSDLNIKVDGRAIVRGNEGVFIMGKTIEFHMGGNMELKAENSIILNGSVMVSTTRLPSSSSGDQLGSGDWVRYKLCMCADGTLFKVQVTSQNMGCQISDNPCGNTH [G106D],-0.65
4,MAAAAAAAAEQQSSNGPVKKSMREKAVERRSVNKEHNSNFKAGYIPIDEDRLHKTGLRGRKGNLAICVIILLFILAVINLIITLVIWAVIRIGPNGCDSMEFHESALLRFKQVSDMGVIHPLYKSTVGGRRNENLVITGNNQPIVFQQGTTKLSVENNKTSITSDIGMQFFDPRTQNILFSTDYETHEFHLPSGVKSLNVQKASTERITSNATSDLNIKVDGRAIVRGNEGVFIMGKTIEFHMGGNMELKAENSIILNGSVMVSTTRLPSSSSGDQLGSGDWVRYKLCMCADGTLFKVQVTSQNMGCQISDNPCGNTH [G106A],-0.24
5,MAAAAAAAAEQQSSNGPVKKSMREKAVERRSVNKEHNSNFKAGYIPIDEDRLHKTGLRGRKGNLAICVIILLFILAVINLIITLVIWAVIRIGPNGCDSMEFHEYGLLRFKQVSDMGVIHPLYKSTVGGRRNENLVITGNNQPIVFQQGTTKLSVENNKTSITSDIGMQFFDPRTQNILFSTDYETHEFHLPSGVKSLNVQKASTERITSNATSDLNIKVDGRAIVRGNEGVFIMGKTIEFHMGGNMELKAENSIILNGSVMVSTTRLPSSSSGDQLGSGDWVRYKLCMCADGTLFKVQVTSQNMGCQISDNPCGNTH [S105Y],0.11
6,MAAAAAAAAEQQSSNGPVKKSMREKAVERRSVNKEHNSNFKAGYIPIDEDRLHKTGLRGRKGNLAICVIILLFILAVINLIITLVIWAVIRIGPNGCDSMEFHELGLLRFKQVSDMGVIHPLYKSTVGGRRNENLVITGNNQPIVFQQGTTKLSVENNKTSITSDIGMQFFDPRTQNILFSTDYETHEFHLPSGVKSLNVQKASTERITSNATSDLNIKVDGRAIVRGNEGVFIMGKTIEFHMGGNMELKAENSIILNGSVMVSTTRLPSSSSGDQLGSGDWVRYKLCMCADGTLFKVQVTSQNMGCQISDNPCGNTH [S105L],-0.66
7,MAAAAAAAAEQQSSNGPVKKSMREKAVERRSVNKEHNSNFKAGYIPIDEDRLHKTGLRGRKGNLAICVIILLFILAVINLIITLVIWAVIRIGPNGCDSMEFHEVGLLRFKQVSDMGVIHPLYKSTVGGRRNENLVITGNNQPIVFQQGTTKLSVENNKTSITSDIGMQFFDPRTQNILFSTDYETHEFHLPSGVKSLNVQKASTERITSNATSDLNIKVDGRAIVRGNEGVFIMGKTIEFHMGGNMELKAENSIILNGSVMVSTTRLPSSSSGDQLGSGDWVRYKLCMCADGTLFKVQVTSQNMGCQISDNPCGNTH [S105V],-0.62
8,MAAAAAAAAEQQSSNGPVKKSMREKAVERRSVNKEHNSNFKAGYIPIDEDRLHKTGLRGRKGNLAICVIILLFILAVINLIITLVIWAVIRIGPNGCDSMEFHEFGLLRFKQVSDMGVIHPLYKSTVGGRRNENLVITGNNQPIVFQQGTTKLSVENNKTSITSDIGMQFFDPRTQNILFSTDYETHEFHLPSGVKSLNVQKASTERITSNATSDLNIKVDGRAIVRGNEGVFIMGKTIEFHMGGNMELKAENSIILNGSVMVSTTRLPSSSSGDQLGSGDWVRYKLCMCADGTLFKVQVTSQNMGCQISDNPCGNTH [S105F],-0.75
9,MAAAAAAAAEQQSSNGPVKKSMREKAVERRSVNKEHNSNFKAGYIPIDEDRLHKTGLRGRKGNLAICVIILLFILAVINLIITLVIWAVIRIGPNGCDSMEFHERGLLRFKQVSDMGVIHPLYKSTVGGRRNENLVITGNNQPIVFQQGTTKLSVENNKTSITSDIGMQFFDPRTQNILFSTDYETHEFHLPSGVKSLNVQKASTERITSNATSDLNIKVDGRAIVRGNEGVFIMGKTIEFHMGGNMELKAENSIILNGSVMVSTTRLPSSSSGDQLGSGDWVRYKLCMCADGTLFKVQVTSQNMGCQISDNPCGNTH [S105R],-0.4
10,MAAAAAAAAEQQSSNGPVKKSMREKAVERRSVNKEHNSNFKAGYIPIDEDRLHKTGLRGRKGNLAICVIILLFILAVINLIITLVIWAVIRIGPNGCDSMEFHEGGLLRFKQVSDMGVIHPLYKSTVGGRRNENLVITGNNQPIVFQQGTTKLSVENNKTSITSDIGMQFFDPRTQNILFSTDYETHEFHLPSGVKSLNVQKASTERITSNATSDLNIKVDGRAIVRGNEGVFIMGKTIEFHMGGNMELKAENSIILNGSVMVSTTRLPSSSSGDQLGSGDWVRYKLCMCADGTLFKVQVTSQNMGCQISDNPCGNTH [S105G],-0.15
11,MAAAAAAAAEQQSSNGPVKKSMREKAVERRSVNKEHNSNFKAGYIPIDEDRLHKTGLRGRKGNLAICVIILLFILAVINLIITLVIWAVIRIGPNGCDSMEFHEIGLLRFKQVSDMGVIHPLYKSTVGGRRNENLVITGNNQPIVFQQGTTKLSVENNKTSITSDIGMQFFDPRTQNILFSTDYETHEFHLPSGVKSLNVQKASTERITSNATSDLNIKVDGRAIVRGNEGVFIMGKTIEFHMGGNMELKAENSIILNGSVMVSTTRLPSSSSGDQLGSGDWVRYKLCMCADGTLFKVQVTSQNMGCQISDNPCGNTH [S105I],-0.75
12,MAAAAAAAAEQQSSNGPVKKSMREKAVERRSVNKEHNSNFKAGYIPIDEDRLHKTGLRGRKGNLAICVIILLFILAVINLIITLVIWAVIRIGPNGCDSMEFHEKGLLRFKQVSDMGVIHPLYKSTVGGRRNENLVITGNNQPIVFQQGTTKLSVENNKTSITSDIGMQFFDPRTQNILFSTDYETHEFHLPSGVKSLNVQKASTERITSNATSDLNIKVDGRAIVRGNEGVFIMGKTIEFHMGGNMELKAENSIILNGSVMVSTTRLPSSSSGDQLGSGDWVRYKLCMCADGTLFKVQVTSQNMGCQISDNPCGNTH [S105K],-0.5
13,MAAAAAAAAEQQSSNGPVKKSMREKAVERRSVNKEHNSNFKAGYIPIDEDRLHKTGLRGRKGNLAICVIILLFILAVINLIITLVIWAVIRIGPNGCDSMEFHEQGLLRFKQVSDMGVIHPLYKSTVGGRRNENLVITGNNQPIVFQQGTTKLSVENNKTSITSDIGMQFFDPRTQNILFSTDYETHEFHLPSGVKSLNVQKASTERITSNATSDLNIKVDGRAIVRGNEGVFIMGKTIEFHMGGNMELKAENSIILNGSVMVSTTRLPSSSSGDQLGSGDWVRYKLCMCADGTLFKVQVTSQNMGCQISDNPCGNTH [S105Q],-0.11
14,MAAAAAAAAEQQSSNGPVKKSMREKAVERRSVNKEHNSNFKAGYIPIDEDRLHKTGLRGRKGNLAICVIILLFILAVINLIITLVIWAVIRIGPNGCDSMEFHENGLLRFKQVSDMGVIHPLYKSTVGGRRNENLVITGNNQPIVFQQGTTKLSVENNKTSITSDIGMQFFDPRTQNILFSTDYETHEFHLPSGVKSLNVQKASTERITSNATSDLNIKVDGRAIVRGNEGVFIMGKTIEFHMGGNMELKAENSIILNGSVMVSTTRLPSSSSGDQLGSGDWVRYKLCMCADGTLFKVQVTSQNMGCQISDNPCGNTH [S105N],-0.63
15,MAAAAAAAAEQQSSNGPVKKSMREKAVERRSVNKEHNSNFKAGYIPIDEDRLHKTGLRGRKGNLAICVIILLFILAVINLIITLVIWAVIRIGPNGCDSMEFHEHGLLRFKQVSDMGVIHPLYKSTVGGRRNENLVITGNNQPIVFQQGTTKLSVENNKTSITSDIGMQFFDPRTQNILFSTDYETHEFHLPSGVKSLNVQKASTERITSNATSDLNIKVDGRAIVRGNEGVFIMGKTIEFHMGGNMELKAENSIILNGSVMVSTTRLPSSSSGDQLGSGDWVRYKLCMCADGTLFKVQVTSQNMGCQISDNPCGNTH [S105H],0
16,MAAAAAAAAEQQSSNGPVKKSMREKAVERRSVNKEHNSNFKAGYIPIDEDRLHKTGLRGRKGNLAICVIILLFILAVINLIITLVIWAVIRIGPNGCDSMEFHEMGLLRFKQVSDMGVIHPLYKSTVGGRRNENLVITGNNQPIVFQQGTTKLSVENNKTSITSDIGMQFFDPRTQNILFSTDYETHEFHLPSGVKSLNVQKASTERITSNATSDLNIKVDGRAIVRGNEGVFIMGKTIEFHMGGNMELKAENSIILNGSVMVSTTRLPSSSSGDQLGSGDWVRYKLCMCADGTLFKVQVTSQNMGCQISDNPCGNTH [S105M],-0.33
17,MAAAAAAAAEQQSSNGPVKKSMREKAVERRSVNKEHNSNFKAGYIPIDEDRLHKTGLRGRKGNLAICVIILLFILAVINLIITLVIWAVIRIGPNGCDSMEFHETGLLRFKQVSDMGVIHPLYKSTVGGRRNENLVITGNNQPIVFQQGTTKLSVENNKTSITSDIGMQFFDPRTQNILFSTDYETHEFHLPSGVKSLNVQKASTERITSNATSDLNIKVDGRAIVRGNEGVFIMGKTIEFHMGGNMELKAENSIILNGSVMVSTTRLPSSSSGDQLGSGDWVRYKLCMCADGTLFKVQVTSQNMGCQISDNPCGNTH [S105T],-0.09
18,MAAAAAAAAEQQSSNGPVKKSMREKAVERRSVNKEHNSNFKAGYIPIDEDRLHKTGLRGRKGNLAICVIILLFILAVINLIITLVIWAVIRIGPNGCDSMEFHEPGLLRFKQVSDMGVIHPLYKSTVGGRRNENLVITGNNQPIVFQQGTTKLSVENNKTSITSDIGMQFFDPRTQNILFSTDYETHEFHLPSGVKSLNVQKASTERITSNATSDLNIKVDGRAIVRGNEGVFIMGKTIEFHMGGNMELKAENSIILNGSVMVSTTRLPSSSSGDQLGSGDWVRYKLCMCADGTLFKVQVTSQNMGCQISDNPCGNTH [S105P],-1.03
19,MAAAAAAAAEQQSSNGPVKKSMREKAVERRSVNKEHNSNFKAGYIPIDEDRLHKTGLRGRKGNLAICVIILLFILAVINLIITLVIWAVIRIGPNGCDSMEFHEWGLLRFKQVSDMGVIHPLYKSTVGGRRNENLVITGNNQPIVFQQGTTKLSVENNKTSITSDIGMQFFDPRTQNILFSTDYETHEFHLPSGVKSLNVQKASTERITSNATSDLNIKVDGRAIVRGNEGVFIMGKTIEFHMGGNMELKAENSIILNGSVMVSTTRLPSSSSGDQLGSGDWVRYKLCMCADGTLFKVQVTSQNMGCQISDNPCGNTH [S105W],0.26
